T1: human MS4A4A ECL1 peptide (amino acid residues 86-98) (human)
T1 construct: synthetic peptide
T1 peptide: CMASNTYGSNPIS

T2: human MS4A6A ECL1 peptide (amino acid residues 68-85) (human)
T2 peptide: SASFSPNFTQVTSTLLNS

T3: human MS4A6A ECL2 peptide (amino acid residues 138-185) (human)
T3 peptide: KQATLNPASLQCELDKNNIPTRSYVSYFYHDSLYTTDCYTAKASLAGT

T4: BSA-conjugated human MS4A4A ECL2 peptide (amino acid residues 159-179) (human, conjugated to BSA (site not stated))
T4 construct: also called MS4A4A-ECL2 BSA conjugated peptide; BSA-MS4A4A-ELC2 peptide
T4 peptide: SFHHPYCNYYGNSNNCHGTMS


Key:
[1] = target: T1, human MS4A4A ECL1 peptide (amino acid …); assay: ELISA, hybridoma supernatant
Method: (§1) Briefly, 96-well polystyrene plates were coated with 1-10 μg/ml of synthetic free or BSA-conjugated peptides in coating buffer (0.05M carbonate buffer, pH9.6, Millipore Sigma C3041) overnight at 4° C. Coated plates were then blocked with ELISA diluent (PBS+0.5% BSA+0.05% Tween20) for 1-hour, washed 3×300 μL in PBST (PBS+0.05% Tween20, Thermo Cat#28352), and then the antibodies were added to the plate ([…]). After 30 mins incubation (room temperature, with shaking), the plates were washed 3×300 μL in PBST. […] After a final set of washes (3×300 μL in PBST), 50 μL of TMB substrate (BioFx TMBW-1000-01) was added and the reaction was then quenched after 5-10 mins with 50 μL of stop solution (BioFx BSTP-1000-01). The quenched reaction wells were detected for absorbance at 650 nm with a BioTek Synergy Microplate Reader using GENS 2.04 software.

[2] = target: T5, cynomolgus (cyno) MS4A4A (cynomolgus); assay: FACS, HEK293, supernatant
T5 construct: also called cy4A; Cyno 4A
Method: (§2) Positive clones identified above were expanded and then rescreened for specificity against HEK293 cells overexpressing human MS4A4A or cyno MS4A4A and parental HEK293 cells. These experiments were performed using supernatants from hybridoma clones which had undergone further expansion after initial selection. Briefly, previously prepared, cryopreserved transiently-transfected cells were labeled with LIVE/DEAD Fixable Aqua Dead Cell Stain Kit (ThermoFisher Scientific L34957) on ice for 30 minutes. After a wash with PBS, 2×10⁵ cells were aliquoted per well in 96-well U-bottom plates and incubated with 50 μl of culture supernatant on ice for 30 minutes. […] Following this secondary incubation, the cells were again washed twice with ice-cold FACS buffer and resuspended in a final volume of 200 μl of FACS buffer. Analysis was performed on a FACS Canto system (BD Biosciences), with sort gates drawn to exclude dead (Aqua-positive) cells. Positive clones (fold change of 1.8 or greater) were carried forward for further testing.

[3] = target: human MS4A4A (human, UniProt Q96JQ5 1-239); assay: FACS, HEK293, supernatant
Method: as §2

[4] = target: T2, human MS4A6A ECL1 peptide (amino acid …); assay: array SPR
Method: (§3) Binding kinetic characterization of the anti-MS4A4A antibodies to MS4A4A ECL1 and ECL2 and to MS4A6A ECL1 and ECL2 peptides was performed by Carterra (South San Francisco, Calif.) using a proprietary array Surface Plasmon Resonance (SPR) instrument (MX-96) as follows. Antibodies were captured onto a CMD500D chip (Xantec # SPMX CMD500D) using the Continous Flow Microspotter (CFM). First, the chip was activated with 100 mM MES pH 5.5, 100 μL EDC (133 mM final), 100 μL of S-NHS (33.3 mM final), for 7 minutes. […] Anti-MS4A4A hydridoma supernatant or purified anti-MS4A4A antibodies were diluted in HBS-EP+ buffer (Teknova Cat # H8022) and then printed as duplicates with a 20 minute and a 5-minute print from the same sample solution.
(§4) These were then injected on the chip for five minutes, followed by a seven-minute dissociation period at 8 uL per second in a non-regenerative kinetic series. Duplicate measurements for each anti-MS4A4A antibody were taken to ensure reproducibility. Association rates (Kon) and dissociation rates (Koff) were calculated using a single one-to-one Langmuir binding model. The equilibrium dissociation constant (KD) was calculated as the ration of Koff/Kon.

[5] = target: T3, human MS4A6A ECL2 peptide (amino acid …); assay: array SPR
Method: as §3, §4

[6] = target: T4, BSA-conjugated human MS4A4A ECL2 …; assay: ELISA, supernatant
Method: as §1

Binder | binding result [1] | Cyno 4A:parental cell ratio [2] [ratio] | Human 4A:parental cell ratio [3] [ratio] | binding result [4] | binding result [5] | binding result [6]
anti-MS4A4A antibody 4A-10 (antibody, V domains shown, murine hybridoma antibody) VH: EVKLEESGGGLVQPGGSMKLSCAASGFTFSDAWMDWVRQSPEKGLEWVAEIRSKANDHATYYAESVKGRFTISRDDSKSSVYLQMNSLRAEDTGIYYCSVDYYGFFWGQGTLVTVSA VL: not shown | no binding | 2.33 | 6.55 | no binding (tested: 2000 nM) | no binding (tested: 2000 nM) | –
anti-MS4A4A antibody 4A-13 (antibody, V domains shown, murine hybridoma antibody; same VH and VL entries as 4A-10) VH: EVKLEESGGGLVQPGGSMKLSCAASGFTFSDAWMDWVRQSPEKGLEWVAEIRSKANDHATYYAESVKGRFTISRDDSKSSVYLQMNSLRAEDTGIYYCSVDYYGFFWGQGTLVTVSA VL: not shown | no binding | 9.94 | 43.8 | no binding (tested: 2000 nM) | no binding (tested: 2000 nM) | –
anti-MS4A4A antibody 4A-16 (antibody, V domains shown, murine hybridoma antibody) VH: EVKLEESGGGLVQPGGSMKLSCAASGFTFSDAWMDWVRQSPEKGLEWVAEIRSKANDHATYYAESVKGRFTISRDDSKSSVYLQMNSLRAEDTGIYYCSVDYYGFFWGQGTMVTVSA VL: not shown | no binding | 2.65 | 5.93 | no binding (tested: 2000 nM) | no binding (tested: 2000 nM) | binds
anti-MS4A4A antibody 4A-9 (antibody, V domains shown, murine hybridoma antibody) VH: DVQLQESGPGLVKPSQSLSLTCSVTGYSITSGYYWNWIRQFPGNKLEWMGYISYDGNNKYNPSLKNRISITRDTSKNQFFLKLNSVTTEDTATYYCANRDYWGQGTTLTVSS VL: DVLMTQTPLSLPVSLGDQASISCRSSQNIVHSNGITYLEWFLQKPGQSPTLLIYKISNRFSGVPDRFSGSGSGTDFTLKISRVEAEDLGVYYCFQGSHVPYTFGGGTKLDIK | no binding | 3.46 | 8.2 | no binding (tested: 2000 nM) | no binding (tested: 2000 nM) | binds
anti-MS4A4A antibody 4A-3 (antibody, V domains shown, murine hybridoma antibody) VH: QIQLVQSGPELKTPGETVKISCKSSGYTFTKYGMNWVKQAPGKGLKWMAWINTYTAEPTYGDDFKGRFALSLETSANTAYLQINNLKNEDTATYFCARSAELVRHYYALDYWGQGTSVTVSS VL: DVLMTQTPLSLPVSLGDQASISCRSSQSLVHSNGNIYLEWFLQKPGQSLKILIYKVSNRFSGVPDRFSGSGSGTDFTLKISRVEADDLGVYYCSQGSHVPPTFGAGTKLELR | no binding | 2.58 | 7.31 | no binding (tested: 2000 nM) | no binding (tested: 2000 nM) | binds
anti-MS4A4A antibody 4A-4 (antibody, V domains shown, murine hybridoma antibody) VH: EIQLQQTGPDLVKPGTSVKISCKASGYSFTDYVLVWVKQSHGKSLEWIGNINPYYGNSDYNLKFEGKARLTVDRSSSTAYMQLNSLTSEDSAVYYCARYGLYAMDFWGQGTSVTVSS VL: DVLMTQTPLSLPVSLGDQASISCRSSQTIVHSNGNSYLEWYLQKPGQSPKLLIYKVSNRFSGVPDRFSGSGSGTVFTLKISRVEAEDLGVYFCFQSSHVPLTFGVGTKLELK | no binding | 2 | 4.78 | no binding (tested: 2000 nM) | no binding (tested: 2000 nM) | binds
anti-MS4A4A antibody 4A-7 (antibody, V domains shown, murine hybridoma antibody) VH: EIQLQQTGPELVKPGASVKISCKASGYSFTDYVMIWVKQSHGKSLEWIGNINPYYGSTSYNLKFKGKATLTVDKSSSTAYMQLKSLTSEDSAVYYCARYGYDALDNWGQGTSVTVSS VL: DVLLTQTPLSLPVSLGDQASISCRSSQSIVHSNGNTYLDWSLQKPGQSPKLLIYRVSNRFSGVPDRFSGSGSGTDFTLKISRVEAEDLGVYYCFQGSHVPLTFGAGTKLELK | no binding | 3.98 | 7.97 | no binding (tested: 2000 nM) | no binding (tested: 2000 nM) | binds
anti-MS4A4A antibody 4A-8 (antibody, V domains shown, murine hybridoma antibody) VH: EVKLVESGGGLVQPGGSLKLSCATSGFTFSDYYMYWVRQTPEKRLEWVAYINNGGGSTYYPDTVKGRFTISRDNAKNTLYLQMSRLKSEDTAMYYCARQGNLIYYSGSSLFAYWGQGTMVTVSS VL: DVLMTQTPLSLPVSLGDQASISCRSSQSIVHSNRNTYLEWYVQKPGQSPKLLIYKVSNRFSGVPDRFSGSGSGTDFTLKISRVEAEDLGVYYCFQGSHVPWTFGGGTKLEIK | no binding | 3.3 | 5.7 | no binding (tested: 2000 nM) | no binding (tested: 2000 nM) | binds

Further lines, results first:

binding result [1] | Cyno 4A:parental cell ratio [2] [ratio] | Human 4A:parental cell ratio [3] [ratio] | binding result [4] | binding result [5] | binding result [6] | Binder
no binding | 4.67 | 8.13 | no binding (tested: 2000 nM) | no binding (tested: 2000 nM) | binds | anti-MS4A4A antibody 4A-15 (antibody, V domains shown, murine hybridoma antibody) VH: EIQLQQTGPDLVKPGASVKISCKASGYSFTDYVILWVKQSHGKTLEWIGHINPYYANSDYNVNFRGKATLTVDKSSSTAHMQLNSLTSEDSAVYYCVRYGSGMDYWGQGTSVTVSS VL: DVLMTQTPLSLPVSLGDQASISCRSSQSIVHSDGNTYLEWYLQKPGQSPKLLIYKVSNRFSGVPDRFSGSGSGTDFTLKISRVEAEDLGVYYCFQGSHFPLTFGAGTKLELK
no binding | 2.11 | 9.12 | no binding (tested: 2000 nM) | no binding (tested: 2000 nM) | binds | anti-MS4A4A antibody 4A-11 (antibody, V domains shown, murine hybridoma antibody) VH: EVKLEESGGGLVQPGGSMKLSCAASGFTFSDAWMDWVRQSPEKGLEWVAEIRSKTDNHATYFAESVKGRFTISRDDSKSSVYLQMNSLRAGDTGIYYCYGSTFASWGQGTLVTVSS VL: not shown
no binding | 1.51 | 1.86 | no binding (tested: 2000 nM) | no binding (tested: 2000 nM) | binds | anti-MS4A4A antibody 4A-19 (antibody, V domains shown, murine hybridoma antibody) VH: QVQLQQSGAELARPGASVKLSCKASGYSFIDYGISWVKQRTGQGLEWIGEIYPRSGNTYYNEKFKGKATLTADKSSSTAYMELRSLTSEDSAVYFCARKGLLRDFDYWGQGTTLTVSS VL: not shown
no binding | – | – | no binding (tested: 2000 nM) | no binding (tested: 2000 nM) | binds | anti-MS4A4A antibody 4A-20 (antibody, V domains shown, murine hybridoma antibody) VH: EVQLQQSGPELVKPGASVKIPCKASGYTFTDYNMDWVKQSHGKSLDWIGDINPNNGYTIYNQKFKGKATLTVDKSSSTAYMELRRLTSEDTAVYYCARSTGPYFDYWGQGTTLTVSS VL: DIQMTQSPASLSASVGETVTITCRASENIYSYLAWYQQKQGKSPQFLVYNGKTLAEGVPSRFSGCGSGTQFSLKINSLQPEDFGSYYCQHHYGIPRTFGGGTKLEIK

From patent publication US20230126400A1 (Alector, published 2023)
